Results reported in patent EP0531080A2, “Peptide inhibitors of human papilloma virus protein binding to retinoblastoma gene protein” (MERCK & CO. INC., priority 1991, dated 1993).
Where a SMILES comes first, the peptide text is derived from it. Where no end group is shown, it is not given here. [ ]: non-standard residue; d: D form. NMeY = CN[C@@H](Cc1ccc(O)cc1)C(=O)O; NMeL = CN[C@@H](CC(C)C)C(=O)O

Legend:
[1] = target: T1, RBG Protein/E7 (complex formation between E7 protein and p105-RB) (Homo sapiens, UniProt P06400); assay: E7/RB solution assay (immunoprecipitation, T24 cell lysates as source of RBG protein); assay type: binding; conditions: average of at least two experiments, triplicate; read-out: SOLUTION ASSAY RBG Protein/E7 IC₅₀
T1 construct: Cell lysates used as source of RBG protein were prepared from human T24 bladder carcinoma cells; endogenous in cells; host or cells: human T24 bladder carcinoma cells (whole cell lysate)
T1 sequence (P06400 1-928): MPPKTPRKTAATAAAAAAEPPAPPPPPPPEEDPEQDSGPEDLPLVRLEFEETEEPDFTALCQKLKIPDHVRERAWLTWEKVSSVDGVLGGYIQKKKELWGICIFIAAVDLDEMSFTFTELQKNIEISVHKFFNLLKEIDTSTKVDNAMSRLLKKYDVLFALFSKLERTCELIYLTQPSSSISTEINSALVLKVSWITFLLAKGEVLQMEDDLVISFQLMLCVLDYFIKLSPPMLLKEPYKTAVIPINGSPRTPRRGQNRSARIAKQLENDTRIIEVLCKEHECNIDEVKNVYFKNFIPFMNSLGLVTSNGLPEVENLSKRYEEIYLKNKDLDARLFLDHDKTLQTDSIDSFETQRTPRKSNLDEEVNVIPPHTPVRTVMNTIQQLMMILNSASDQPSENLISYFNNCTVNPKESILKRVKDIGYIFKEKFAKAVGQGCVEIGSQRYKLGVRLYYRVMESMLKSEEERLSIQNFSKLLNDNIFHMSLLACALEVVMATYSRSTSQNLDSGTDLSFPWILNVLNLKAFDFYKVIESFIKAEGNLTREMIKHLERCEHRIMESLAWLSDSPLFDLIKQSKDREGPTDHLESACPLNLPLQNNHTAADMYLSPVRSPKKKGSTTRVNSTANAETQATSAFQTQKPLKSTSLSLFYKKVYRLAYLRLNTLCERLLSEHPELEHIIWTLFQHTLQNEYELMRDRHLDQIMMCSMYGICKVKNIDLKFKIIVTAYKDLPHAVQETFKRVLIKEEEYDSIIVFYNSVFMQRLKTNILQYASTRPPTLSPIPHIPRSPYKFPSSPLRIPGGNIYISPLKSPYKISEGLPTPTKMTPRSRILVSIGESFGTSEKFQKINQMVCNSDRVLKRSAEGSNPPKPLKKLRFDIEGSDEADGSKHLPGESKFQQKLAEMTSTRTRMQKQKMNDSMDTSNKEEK
Description: (§1) An in vitro solution assay used for the detection of complex formation between E7 protein and p105-RB has been described by Dyson, et. al. (30). Cell lysates used as source of RBG protein were prepared from human T24 bladder carcinoma cells as described (30). C36 and the control antibody Pb416 are monoclonal antibodies directed against RGB protein and SV40 large T protein, respectively. These antibodies were a generous gift from E. Harlow (Cold Spring Harbor Laboratories, Cold Spring Harbor, NY). Immunoprecipitates of E7/RGB protein binding reactions containing serially diluted peptide antagonists were dissolved in 35 µl gel loasing buffer (30). Five µl was counted directly in Right Safe (Beckan, Palo Alto, CA.) scintillation cocktail and 25 µl was subjected to sodium dodecyl sulphate poly-acrylamide gel electrophoresis. Gels were dried and exposed to Kodak X-AR film at -70°C overnight. In order to more rapidly assay large numbers of samples and more easily quantitate the binding results, we developed a plate binding asszy for the detection of E7/RGB protein association. Purified recombinant E7 was resuspended in 0.1 M sodium carbonate, pH 9.5, at 1 ng/µl. Fifty microliters of this solution was placed inot each well of a polyvinyl chloride micortiter plate (COSTAR 2596, Cambridge, MA.). The plate was gently agitated for 18 hours at 4°C. The E7 solution was aspirated off and 100 µl of plate blocking buffer (PBB) [50mM Hepes 7.0, 250mM sodium chloride, 0.1% NP40, 0.5% (w/v) pigskin gelatin, and 0.02% sodium azide] was added pwe well. The buffer was removed and the plate was washed three times in the above buffer without the gelatin (PB). five femtomoles of ³⁵S-methionine (Amersham 100 Ci/mmole, Arlington Heights, IL.) labeled RBG protein prepared in a rabbit reticulocyte lysate was diluted in PB buffer containing various peptide antagonists to a final volume of 50 µl and added to the E7 treated plate. The plate was agsin incubated at 4°C with agitation for 1 hour after which the solution was aspirated and each well washed five times with PB. The top of the plate was removed using a hot wire cutting apparatus (D. Lee, Sunnyvale, CA). Each well eas placed in 3 ml of Ready Safe scintillation cocktail (Beckman, Palo Alto, CA.) and counted for one minute. • 30. Dyson, N. Duffy, L.A., and Harlow, E. (1989) Cancer Cells 7, 235-240 • 31. Merrifield, R.B. (1963) J. Am. Chem. Soc. 85, 2149-2154 • 32. Sakakibara, S., Shimonishi, Y., Kishida, Y., Okada, M., and Sugihara, H. (1967) Bull. Chem. Soc. Japan 40, 2164-2167 • 33. Rivier, J., McClentock, R., and Anderson, H. (1984) J. Chromatogr. 288, 303-328
(§2) IC ₅₀ values represent the average of at least two experiments in which each concentration of inhibitor was tested in triplicate. The varition between experiments was less than 10%. The 50% inhibition concentration are micromolar. ND = not determined. [formula] [formula] [formula] [formula]

[2] = target: T2, RBG Protein/E7 (Homo sapiens, UniProt P06400); assay: E7/RB plate binding assay (recombinant E7 on plate, 35S-labeled RBG protein); conditions: average of at least two experiments, triplicate; read-out: PLATE ASSAY RBG Protein/E7 IC₅₀
T2 construct: made in house; host or cells: rabbit reticulocyte lysate (in vitro translation of RB)
T2 sequence (P06400 1-928): T1 sequence (P06400 1-928)
Description: as §1, §2

[3] = target: T3, HPV-16 E7 protein binding to the RBG protein (Homo sapiens, UniProt P06400); assay: Binding inhibition assay by immune precipitation (Example 2; Hela cell lysate plus radiolabeled E7 from rabbit reticulocyte lysate); parameters: Whole cell lysates of Hela cells were used as a source of human RBG protein; endogenous in cells; host or cells: HeLa whole cell lysate (RB); rabbit reticulocyte lysate, T7 promoter clone (E7)
T3 sequence (P06400 1-928): T1 sequence (P06400 1-928)
Description: Peptide A, Peptide B, and Acetyl-GRP 20-27 were assayed for their abilities to inhibit the binding of the HPV-16 E7 protein to the RBG protein. Binding inhibition assays were carried out in vitro using a modification of the procedure described by N. Dyson et al., Science 243: 934-936 1989. Whole cell lysates of Hela cells were used as a source of human RBG protein. Rabbit reticulocyte cell free lysates that permit transcription and translation of exogenously added DNAs served as a source of HPV-16 E7 protein. The HPV-16 E7 gene was added to the rabbit reticulocyte lysate as a recombinant DNA clone under the control of a T7 promoter and incubated for 60 minutes at 30°C in the presence of radiolabeled methionine to allow transcription of the HPV-16 E7 gene and translation into E7 protein that contained radiolabeled methionine. The Hela cell and rabbit reticulocyte lysates were then mixed and incubated at 4°C for 90 minutes. After further manipulations a murine antibody against the RBG protein was added and incubated at 4°C for 60 minutes. Next, a rabbit anti-mouse IgG antibody and protein A sepharose was added to the reaction mixture in order to immune precipitate the RBG protein. At the same time, the E7 protein that was bound to the RBG protein was also precipitated. […] This biochemical protocol yields a quantitative estimate of the binding of HPV-16 E7 protein to the RBG protein in vitro. […]

[4] = target: T3, HPV-16 E7 protein binding to the RBG protein; assay: HPV-16 E7 protein binding assay described by R.E. Jones et al.; conditions: lowest concentration stated to inhibit
Description: Peptides D and E were examined in the HPV-16 E7 protein binding assay described by R.E. Jones et al., The Journal of Biological Chemistry, Vol 265:12782-12785, 1990. This assay measures the binding of the E7 protein to the RBG protein. Peptides D and E inhibited HPV-16 E7 protein binding to the RBG protein at concentrations of Peptide D as low as 20nM and at concentrations of Peptide E as low as 2nM. […] Additionally, Peptide D and Peptide E are themselves antagonists of the HPV E7 protein binding to the RBG protein.

In the case of “E7-(21)32)-AMIDE (DLYCYEQLNDSS-NH2; UniProt P03129 21-32, looked up, fragment) [Peptide 10]”, the IC50 [1] is reported as 20 µM and the IC50 [2] is reported as 11.4 µM.
In the case of “Acetyl-GRP 20-27: last eight amino acid residues of the human gastrin releasing peptide, unrelated to the HPV E7 protein”, the “effect on HPV-16 E7 protein binding to the RBG protein” value ([3]; concentrations up to 60 uM) is reported as “no effect”.
Compound “[G1n27]]-E7-(20-27)-AMIDE (TDLYCYEQ-NH2; UniProt P03129 20-27, looked up, fragment) [Peptide 5]” has an IC50 [1] of 50 µM and an IC50 [2] of 9.1 µM.
`CC(=O)N[C@@H](CC(=O)O)C(=O)N(C)[C@@H](CC(C)C)C(=O)N[C@@H](Cc1ccc(O)cc1)C(=O)N[C@@H](CS)C(=O)N(C)[C@@H](Cc1ccc(O)cc1)C(=O)N[C@@H](CCC(=O)O)C(=O)N[C@@H](CCC(N)=O)C(=O)N(C)[C@@H](CC(C)C)C(=O)N[C@@H](CC(N)=O)C(N)=O` [Peptide E] (Ac-D[NMeL]YC[NMeY]EQ[NMeL]N-NH2) was tested, and the “inhibited HPV-16 E7 protein binding to the RBG protein at concentrations as low as” value (“inhibited HPV-16 E7 protein binding” below) [4] was 2 nM.
Compound “E7-(14-29)-AMIDE (DLQPETTDLYCYEQLN-NH2; UniProt P03129 14-29, looked up, fragment) [Peptide 7]” has an IC50 [2] of 0.08 µM.
For Ac-LYCYEQLNDSS-NH2 [Peptide C], the “inhibited HPV-16 E7 protein binding” value ([3]; lowest concentration stated to inhibit) was 1 µM.
For [ABU²⁴]-E7-(20-32)-AMIDE [Peptide 17], the IC50 [1] was 20 µM.
“E7-(18-29)-AMIDE (ETTDLYCYEQLN-NH2; UniProt P03129 18-29, looked up, fragment) [Peptide 8]” gave an IC50 [1] of 0.4 µM and an IC50 [2] of 0.06 µM.
With Ac-DLYCYEQLN-NH2 [Peptide D] the “inhibited HPV-16 E7 protein binding” value [4] was 20 nM.
Compound [ACM²⁴]-E7-(20-32)-AMIDE [Peptide 18] has an IC50 [1] of over 100 µM.
“[Ser²⁴]-E7-(20-32)-AMIDE (TDLYSYEQLNDSS-NH2; UniProt P03129 20-32, looked up, variant C24S) [Peptide 16]” was tested, and the IC50 [1] was 40 µM.
“TDLFCYEQLN-NH2 [Peptide 19, [Phe²³]-E7-(20-29)-AMIDE]” gave an IC50 [2] of 0.06 µM.
With “E7-(20-32)-AMIDE (TDLYCYEQLNDSS-NH2; UniProt P03129 20-32, looked up, fragment) [Peptide 1]” the IC50 [1] was 1 µM and the IC50 [2] was 0.05 µM.
